From the supplement of paper PMC9112550, “Optimization of the antimicrobial peptide Bac7 by deep mutational scanning” (BMC Biology, 2022)

system: Escherichia coli TOP10; test: shrunken log2 fold change of peptide-encoding DNA abundance (4.5 h post-induction vs induction); higher = less antimicrobial activity (less host growth inhibition); conditions: time post-induction: 4.5 h; library: site-saturation at positions 5, 18, 19, 20
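Further: peptides expressed intracellularly from a pBAD plasmid library in pooled LB shake-flask culture, induced with 0.3% L-arabinose, DNA abundance read by NGS, three biological replicates, DESeq2 with apeglm shrinkage.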

Row | Sequence | shrunken log2 fold change
1 | RRIRDRPPRLPRPRPRPCSMPRP | -0.0575
2 | RRIRMRPPRLPRPRPRPQQTPRP | 1.14
3 | RRIRSRPPRLPRPRPRPLSSPRP | -0.329
4 | RRIRPRPPRLPRPRPRPYKSPRP | -0.0798
5 | RRIRHRPPRLPRPRPRPCRGPRP | 0.00172
6 | RRIRSRPPRLPRPRPRPERGPRP | -0.0603
7 | RRIRVRPPRLPRPRPRPNQIPRP | -0.1
8 | RRIRRRPPRLPRPRPRPLDGPRP | 0.0894
9 | RRIRDRPPRLPRPRPRPRQLPRP | 0.185
10 | RRIRLRPPRLPRPRPRPRDRPRP | 3.43
11 | RRIRARPPRLPRPRPRPWWDPRP | -0.101
12 | RRIRDRPPRLPRPRPRPRYWPRP | 0.152
13 | RRIRVRPPRLPRPRPRPQTRPRP | 0.355
14 | RRIRNRPPRLPRPRPRPGQMPRP | 0.00315
15 | RRIRNRPPRLPRPRPRPHVSPRP | -0.00166
16 | RRIRGRPPRLPRPRPRPDQLPRP | 0.719
17 | RRIRMRPPRLPRPRPRPEQMPRP | 2.44
18 | RRIRWRPPRLPRPRPRPYIPPRP | -1.15
19 | RRIRARPPRLPRPRPRPFIHPRP | -0.45
20 | RRIRGRPPRLPRPRPRPLLFPRP | 0.873
21 | RRIRPRPPRLPRPRPRPNIDPRP | -0.468
22 | RRIRWRPPRLPRPRPRPRCQPRP | -0.0289
23 | RRIRFRPPRLPRPRPRPKNRPRP | -0.284
24 | RRIRARPPRLPRPRPRPGLRPRP | 0.331
25 | RRIRWRPPRLPRPRPRPMSTPRP | -0.111

Row | Sequence | shrunken log2 fold change
26 | RRIRNRPPRLPRPRPRPAYLPRP | -0.284
27 | RRIRERPPRLPRPRPRPPTNPRP | 0.0754
28 | RRIRLRPPRLPRPRPRPCYDPRP | 0.00693
29 | RRIRVRPPRLPRPRPRPHAMPRP | -0.18
30 | RRIRQRPPRLPRPRPRPHHSPRP | -0.107
31 | RRIRQRPPRLPRPRPRPGVSPRP | -0.0696
32 | RRIRKRPPRLPRPRPRPSRFPRP | 1.06
33 | RRIRIRPPRLPRPRPRPQWFPRP | -0.0117
34 | RRIRLRPPRLPRPRPRPCMHPRP | -0.0286
35 | RRIRIRPPRLPRPRPRPMLKPRP | -0.282
36 | RRIRGRPPRLPRPRPRPGMQPRP | 1.15
37 | RRIRWRPPRLPRPRPRPHWYPRP | 2.17
38 | RRIRGRPPRLPRPRPRPRMTPRP | 1.26
39 | RRIRNRPPRLPRPRPRPNWGPRP | -0.0231
40 | RRIRVRPPRLPRPRPRPQQAPRP | -0.0616
41 | RRIRVRPPRLPRPRPRPIKDPRP | 0.0334
42 | RRIRLRPPRLPRPRPRPVMFPRP | -0.268
43 | RRIRMRPPRLPRPRPRPFAFPRP | 0.0579
44 | RRIRYRPPRLPRPRPRPDPIPRP | -0.168
45 | RRIRLRPPRLPRPRPRPKGEPRP | 0.149
46 | RRIRHRPPRLPRPRPRPQVSPRP | -0.00697
47 | RRIRMRPPRLPRPRPRPMEVPRP | 0.0214
48 | RRIRARPPRLPRPRPRPFNWPRP | 0.0857
49 | RRIRIRPPRLPRPRPRPNKSPRP | -0.919
50 | RRIRIRPPRLPRPRPRPKTGPRP | -0.388

Row | Sequence | shrunken log2 fold change
51 | RRIRNRPPRLPRPRPRPMDKPRP | 0.00658
52 | RRIRIRPPRLPRPRPRPDCTPRP | 0.0385
53 | RRIRYRPPRLPRPRPRPFTPPRP | -0.889
54 | RRIRARPPRLPRPRPRPMFQPRP | -0.0957
55 | RRIRYRPPRLPRPRPRPIWIPRP | -0.0319
56 | RRIRFRPPRLPRPRPRPRDIPRP | -0.11
57 | RRIRGRPPRLPRPRPRPQSCPRP | 0.195
58 | RRIRQRPPRLPRPRPRPYEQPRP | -0.609
59 | RRIRQRPPRLPRPRPRPCNMPRP | 0.00148
60 | RRIRFRPPRLPRPRPRPTSFPRP | 0.0329
61 | RRIRSRPPRLPRPRPRPFAMPRP | -0.0258
62 | RRIRPRPPRLPRPRPRPDKYPRP | -0.743
63 | RRIRWRPPRLPRPRPRPMPLPRP | -0.0398
64 | RRIRSRPPRLPRPRPRPGSSPRP | -0.168
65 | RRIRARPPRLPRPRPRPIHNPRP | -0.0611
66 | RRIRKRPPRLPRPRPRPVIHPRP | -0.0677
67 | RRIRKRPPRLPRPRPRPNEPPRP | 0.027
68 | RRIRGRPPRLPRPRPRPHCLPRP | 0.196
69 | RRIRFRPPRLPRPRPRPGSPPRP | 0.206
70 | RRIRPRPPRLPRPRPRPEPIPRP | 0.26
71 | RRIRTRPPRLPRPRPRPMPSPRP | -0.128
72 | RRIRGRPPRLPRPRPRPWKPPRP | 0.0444
73 | RRIRNRPPRLPRPRPRPPVSPRP | -0.401
74 | RRIRGRPPRLPRPRPRPFCYPRP | 0.362
75 | RRIRLRPPRLPRPRPRPMKFPRP | 0.0807

Row | Sequence | shrunken log2 fold change
76 | RRIRARPPRLPRPRPRPLMRPRP | 1.45
77 | RRIRDRPPRLPRPRPRPEAIPRP | 0.0379
78 | RRIRCRPPRLPRPRPRPINQPRP | -0.485
79 | RRIRFRPPRLPRPRPRPYLPPRP | -0.216
80 | RRIRRRPPRLPRPRPRPLWRPRP | 0.348
81 | RRIRGRPPRLPRPRPRPKSQPRP | 0.556
82 | RRIRHRPPRLPRPRPRPNCQPRP | 0.358
83 | RRIRERPPRLPRPRPRPDTIPRP | -0.06
84 | RRIRCRPPRLPRPRPRPEEKPRP | 0.0239
85 | RRIRCRPPRLPRPRPRPFPAPRP | -0.0653
86 | RRIRARPPRLPRPRPRPEVYPRP | -0.00104
87 | RRIRERPPRLPRPRPRPMYTPRP | -0.469
88 | RRIRQRPPRLPRPRPRPNRSPRP | -0.0178
89 | RRIRKRPPRLPRPRPRPVRPPRP | 1.28
90 | RRIRLRPPRLPRPRPRPRQKPRP | 0.154
91 | RRIRGRPPRLPRPRPRPYLIPRP | -0.0775
92 | RRIRTRPPRLPRPRPRPGTKPRP | -0.122
93 | RRIRVRPPRLPRPRPRPWGYPRP | -0.0139
94 | RRIRCRPPRLPRPRPRPMSMPRP | -0.212
95 | RRIRSRPPRLPRPRPRPKYKPRP | -0.422
96 | RRIRWRPPRLPRPRPRPTTEPRP | 0.207
97 | RRIRNRPPRLPRPRPRPCMVPRP | -0.69
98 | RRIRKRPPRLPRPRPRPGVSPRP | 0.497
99 | RRIRKRPPRLPRPRPRPLRNPRP | 0.653
100 | RRIRTRPPRLPRPRPRPGEHPRP | -0.187

Row | Sequence | shrunken log2 fold change
101 | RRIRRRPPRLPRPRPRPGVNPRP | -0.271
102 | RRIRTRPPRLPRPRPRPEAMPRP | 0.0163
103 | RRIRHRPPRLPRPRPRPVHQPRP | 0.0507
104 | RRIRRRPPRLPRPRPRPNLDPRP | -0.152
105 | RRIRHRPPRLPRPRPRPNVQPRP | -1.87
106 | RRIRLRPPRLPRPRPRPQSIPRP | -0.0983
107 | RRIRGRPPRLPRPRPRPVRYPRP | 0.428
108 | RRIRDRPPRLPRPRPRPNFTPRP | -0.0368
109 | RRIRWRPPRLPRPRPRPSTQPRP | 0.0274
110 | RRIRGRPPRLPRPRPRPVMIPRP | 0.157
111 | RRIRDRPPRLPRPRPRPQCKPRP | 0.0759
112 | RRIRQRPPRLPRPRPRPNMDPRP | -0.225
113 | RRIRPRPPRLPRPRPRPNQIPRP | 0.0623
114 | RRIRARPPRLPRPRPRPMEFPRP | -0.117
115 | RRIRKRPPRLPRPRPRPRLAPRP | 0.772
116 | RRIRCRPPRLPRPRPRPCPAPRP | -0.178
117 | RRIRRRPPRLPRPRPRPFDLPRP | 0.0765
118 | RRIRCRPPRLPRPRPRPTNYPRP | 0.263
119 | RRIRQRPPRLPRPRPRPEVMPRP | 0.0824
120 | RRIRNRPPRLPRPRPRPAPIPRP | 0.169
121 | RRIRRRPPRLPRPRPRPDCYPRP | -0.236
122 | RRIRNRPPRLPRPRPRPWYNPRP | -0.00192
123 | RRIRHRPPRLPRPRPRPDYMPRP | -0.336
124 | RRIRGRPPRLPRPRPRPMYYPRP | 0.197
125 | RRIRDRPPRLPRPRPRPNWQPRP | 0.00408

Row | Sequence | shrunken log2 fold change
126 | RRIRGRPPRLPRPRPRPEHRPRP | 0.102
127 | RRIRVRPPRLPRPRPRPMMAPRP | -0.12
128 | RRIRIRPPRLPRPRPRPWLKPRP | 4.66
129 | RRIRRRPPRLPRPRPRPYMYPRP | -0.74
130 | RRIRTRPPRLPRPRPRPDWGPRP | 0.194
131 | RRIRVRPPRLPRPRPRPVADPRP | 0.181
132 | RRIRSRPPRLPRPRPRPCPLPRP | -0.823
133 | RRIRYRPPRLPRPRPRPWHNPRP | -0.626
134 | RRIRARPPRLPRPRPRPEDQPRP | 0.0203
135 | RRIRTRPPRLPRPRPRPPYFPRP | 0.202
136 | RRIRERPPRLPRPRPRPAGDPRP | 3.19
137 | RRIRERPPRLPRPRPRPQTQPRP | -0.0049
138 | RRIRNRPPRLPRPRPRPWRIPRP | 0.0411
139 | RRIRSRPPRLPRPRPRPVTKPRP | -0.00403
140 | RRIRKRPPRLPRPRPRPLAWPRP | 0.928
141 | RRIRIRPPRLPRPRPRPICPPRP | 0.0188
142 | RRIRPRPPRLPRPRPRPGDVPRP | 0.145
143 | RRIRARPPRLPRPRPRPSQKPRP | 0.106
144 | RRIRLRPPRLPRPRPRPMGNPRP | -0.147
145 | RRIRPRPPRLPRPRPRPESAPRP | 0.396
146 | RRIRFRPPRLPRPRPRPSFGPRP | -0.112
147 | RRIRIRPPRLPRPRPRPPWRPRP | 0.507
148 | RRIRQRPPRLPRPRPRPKNLPRP | -0.186
149 | RRIRSRPPRLPRPRPRPHWAPRP | -0.0673
150 | RRIRIRPPRLPRPRPRPFGKPRP | -0.0569
